Assay [1] deals with T1, human IL-34 (human, UniProt Q6ZMJ4 21-242).
T1 sequence: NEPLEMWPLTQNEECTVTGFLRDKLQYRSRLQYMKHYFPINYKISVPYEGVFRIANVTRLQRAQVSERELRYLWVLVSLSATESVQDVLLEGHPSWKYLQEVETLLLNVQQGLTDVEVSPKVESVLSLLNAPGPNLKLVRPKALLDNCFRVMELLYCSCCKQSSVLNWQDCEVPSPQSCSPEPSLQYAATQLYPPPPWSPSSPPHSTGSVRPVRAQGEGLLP
Nature of the assay: cell-based or functional assay.

Assay [2] deals with T1, human IL-34. Briefly: SPR BIAcore 8K, 37 C, antibody captured on Protein A chip, IL-34 in solution. The procedure:
(§1) Binding affinity of anti-IL-34 monoclonal antibodies of the present disclosure to human and/or cynomolgus monkey (cyno) IL-34 may be determined by methods known in the art. Briefly, the binding affinity and kinetics of the antibody are evaluated by surface plasmon resonance using BIAcore™ 8K (Cytiva) at 37° C. […] For each cycle, 200 μL IL-34 is flowed over the immobilized antibody at 100 μL/minute, and then dissociated for 20 minutes. The chip surface is regenerated with 50 μL of glycine buffer at pH 1.5 at a flow rate of 100 μL/minute. The data are fit to a 1:1 Langmiur binding mode to derive kon, koff and to calculate KD.
In general terms: Surface plasmon resonance follows binding to a sensor surface in real time, without labels.

In assay [3] the target is T2, cynomolgus monkey IL-34 (cynomolgus monkey, UniProt G7Q1L3 21-242).
T2 construct: It was biotinylated in the CSF1R displacement ELISA; also called cyno IL-34
T2 sequence: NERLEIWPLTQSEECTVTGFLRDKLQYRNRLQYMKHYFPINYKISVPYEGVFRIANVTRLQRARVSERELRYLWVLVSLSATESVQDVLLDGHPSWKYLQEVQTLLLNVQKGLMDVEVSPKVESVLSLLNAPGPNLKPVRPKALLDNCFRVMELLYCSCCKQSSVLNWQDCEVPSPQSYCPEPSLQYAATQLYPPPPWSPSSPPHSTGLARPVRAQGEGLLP
Described as above. As to the method: as §1

For assay [4], the target named is T1, human IL-34. Briefly: competition ELISA, displacement of biotinylated human IL-34 from coated hCSF1R_Fc. As to the method: (§2) CSF1R extracellular domain proteins (hCSF1R_Fc commercially available from R&D Cat #329-MR, cynomolgus CSF1R ECD-Fc (AAA is a linker between CSF1R extracellular domain and Fc) (SEQ ID NO: 34)) can be bound to an ELISA plate at concentrations of 30 nM in order to capture soluble biotinylated IL-34 and allowed to bind for one hour. After washing and blocking plate, biotinylated IL-34 may be added, then detected via streptavidin conjugated peroxidase. Concentrations of labeled IL-34 near the 80% binding level (EC₈₀) (3.7 nM) may be used in conjunction with a range of antibody concentrations (0-100 nM) to determine concentration of antibody required to displace IL-34 from CSF1R. After 1 hr incubation, IL-34 bound to CSF1R is detected via streptavidin conjugated peroxidase. The antibodies are assayed (n=2) and the average and standard deviation at each concentration are calculated. The potency of an antibody to displace IL-34 from CSF1R is reported as IC₅₀ (nM) with the calculated confidence interval (CI) in Table 4 and Table 5.
On the technique in general: In an ELISA, binding on a coated surface is turned into a signal by an enzyme label.

Assay [5] has as its target T2, cynomolgus monkey IL-34. Nature of the assay: competition ELISA, displacement of biotinylated cyno IL-34 from coated cyno CSF1R ECD-Fc. As to the method: as §2

B1: Antibody 1 (antibody, human IgG4 S228P, kappa, F234A L235A, V domains shown)
VH: EVQLLESGGGLVQPGGSLRLSCAASGFAFSSYRMSWVRQAPGKGLEWVSAISASGGKTYYADSVKGRFTISRDNSKNTLYLQMNSLRAEDTAVYYCAKRGYIWHAFDLWGRGTLVTVSS
VL: EIVLTQSPGTLSLSPGERATLSCRASQSVYSSYLAWYQQKPGQAPRLLIYGASSRATGIPDRFSGSGSGTDFTLTISRLEPEDFAVYYCQVVGSSPPFTFGGGTKVEIKR
notes: Human anti-IL-34 antibody with IgG4 PAA hinge/Fc and kappa light chain; also called Exemplified Antibody 1; exemplified antibody 1
Usually Kd stands for a measure of binding affinity in units of concentration. Broadly, the koff is a measure of how fast the partners let go of each other. A word on the kon: it is the rate constant with which the complex forms. The IC50 is the midpoint of a concentration-inhibition curve. B1: the “IC50 (ug/ml), neutralization of human IL-34 induced luciferase reporter activity” value with human IL-34 [1] was determined as 0.0531 µg/mL. In the assay with human IL-34 [2], this molecule had a Kd of 0.0312 nM, an off-rate (koff) of 0.00026 s⁻¹ and an on-rate (kon) of 8.4e+06 M⁻¹ s⁻¹. Besides, in the assay with cynomolgus monkey IL-34 [3], binding was put at a Kd of 0.0409 nM, the off-rate constant (koff) worked out at 0.0003 s⁻¹ and the on-rate constant (kon) was found to be 7.9e+06 M⁻¹ s⁻¹. In the assay with human IL-34 [4], this molecule returned a half-inhibitory concentration (IC50) of 0.0274 nM. Besides, the half-inhibitory concentration (IC50) in the assay with cynomolgus monkey IL-34 [5] was determined as 0.975 nM.

(Values after patent publication US20260132190A1 (Eli Lilly, published 2026).)
